This passage reports self-cleavage results from the RNAGym collection of RNA variant scans (doi:10.7554/elife.80360).

To fix the notation:
B1: Twister Ribozyme (parent)
chain: AACACUGCCAAUGCCGGUCCCAAGCCCGGAUAAAAGUGGAGGGGGCGG

The variants in this data set derive from B1. The data set is described as follows: self-cleavage, relative activity (ratio to wild type); higher = more cleavage; co-transcriptional.
Turning to AACACUGCCAAUGCCGGUCCCAAACCCGGAUAAAAGUGGGGGGGGCGG, the self-cleavage worked out at 0.0838. For AACACUGCCAAUGCCGGUCCCAAGCCCGGAUAAAAGUGGAGGGAGAGG the value was 0.878; for AACACUGCCAAUGCCGGUCCCAUGCCCGGAUAAAAGUGGAGGGGGGGG, 0.652. For AACACUGCCAAUGCCUGUCCCAAGCCCGGAUAAAAGUGGAGGGUGCGG the value was 1.14; for AACACUGCCAAUGCCGGUCCCAAGCCCGGAAAAAAGUAGAGGGGGCGG, 0.509; for AACAUUGCCAAUGCCGGUCCCAAGCCCGGAUAAAAGUGGAGGGGGCGU, 0.82. Under AAUACUGCCAAUGCCGGUCCCAAGCCCGGAUAAAAGUGGAGGGGCCGG stands 0.179; under AAUACUGCCAAUGCCGGUCCCAAGCCCCGAUAAAAGUGGAGGGGGCGG, 0.167; under AACACUGCCAAUGCCGUUCCCAAGCCCGGAUAAAAUUGGAGGGGGCGG, 0.0806. Regarding AACACUGCCAAUGCCGGUCCCAAGCCCGGAUUAAACUGGAGGGGGCGG, the self-cleavage turned out to be 0.435. With AACACUGCCAAUGCCGGUCCCAAGCCCGGAUAAAGGUGGAGGGAGCGG, the self-cleavage amounted to 0.808. Under AACACGGCCAAUGCCGGUCCCAAGCCCGGAUAAAAGUGGAGGGGGCAG stands 0.179; under AACACUGCCAAUGCCGGUCCCGAGCCCGGAGAAAAGUGGAGGGGGCGG, 0.263. For AACACUGCCAAUGCCGGUCCCAAGCCCUGAUAAAACUGGAGGGGGCGG the value was 0.232; for AACACUGCCAAUGCGGGUCCCACGCCCGGAUAAAAGUGGAGGGGGCGG, 0.137.

As for AACACUGCCAAUGCCGGUCCCAAGCCCGGAUAAAAGUAGAGGGUGCGG, the self-cleavage was determined as 0.846. Under AACACUGGCAAUGCCGGUCCCAAGCCCGGAUAUAAGUGGAGGGGGCGG stands 0.279. For AACACUGCCAAUGCCGGUCCCAAGCCCGGGUACAAGUGGAGGGGGCGG, the self-cleavage turned out to be 1.06. Under AACGCUGCCAAUGCCGGUCUCAAGCCCGGAUAAAAGUGGAGGGGGCGG stands 1.06. For AACGCUGCCAAUGCCCGUCCCAAGCCCGGAUAAAAGUGGAGGGGGCGG, the self-cleavage amounted to 0.243.

Take AACACUGCCAAUGCCGGUCCCAAGCUAGGAUAAAAGUGGAGGGGGCGG: the self-cleavage is 0.102. Regarding AACACUGCCAAUGCCGGUCCCAAGCGCGGAUAAUAGUGGAGGGGGCGG, the self-cleavage is 0.15. Under AACACUGCCAAUGCCGGUCCCAGGCCCGGAUAAAAGUGCAGGGGGCGG stands 0.102; under AACAGUGUCAAUGCCGGUCCCAAGCCCGGAUAAAAGUGGAGGGGGCGG, 0.294; under AACACUGCCAAUGCCGGUCCCAAGCCCGGAUAAAAGAGGAGCGGGCGG, 0.252.

As to AACACUGCCAAUGCCGGUCCCAAGCCCGGCUAAAAGUGGAGGGGGCAG, the self-cleavage stood at 0.577.

Consider AACACUGCCAAUGCCAGUCCCAAGCCCGGAUAAAAGUAGAGGGGGCGG, for which the self-cleavage came to 0.867. For the variant AACACUGCCAAUGCCGGUCCCAAGCCCGGAUAAAAGUGGAAGGGACGG, the self-cleavage was 0.588. Under AACACCGCCAAUGCCGGUCCCAAGCCCGGAUAAAUGUGGAGGGGGCGG stands 0.619; under AACACUGCCAAUGCCGGUCCCAAGUCCGUAUAAAAGUGGAGGGGGCGG, 0.824. Under AACACUACCAGUGCCGGUCCCAAGCCCGGAUAAAAGUGGAGGGGGCGG stands 0.48; under ACCACUGCCAAUGCCGAUCCCAAGCCCGGAUAAAAGUGGAGGGGGCGG, 0.063; under AACACUGCCAAUGCCGGUCCCAAGCCCGGAUAAAAUUGGAGCGGGCGG, 0.16. Under AACACUGCCAAUGCCGGUCCCAAGCCCCGAUAAAAGUGCAGGGGGCGG stands 0.159. With AGCACUGCCAAUGCCGGUCCCAAGCCCAGAUAAAAGUGGAGGGGGCGG, the self-cleavage turned out to be 0.269.

Regarding AACACUGCCAAUGCCGGUCCCAAGCCCGGAUAAAAGUGCAGGGGCCGG, the self-cleavage came out at 0.105. For the variant AACACUGCCAAUGCCGGUCCCAAGCCCGGAUAAAAGUUGAGGUGGCGG, the self-cleavage came to 0.156. Under AACACUGCCAAUGCCGGUCCCAAUCCCGGAUAAAAGUUGAGGGGGCGG stands 0.0819. Under AACACUGCCAAUACCGGUCCCAAGCCCGGAUACAAGUGGAGGGGGCGG stands 0.825. Under UACACUGCCAAUGCCGGUCCCAAGCCCGGAAAAAAGUGGAGGGGGCGG stands 0.0544; under AACACUGCCAAUGCCGGACCCAAGCCCGGAUAAAAGUGGAGGGAGCGG, 0.631; under AACUCUGCCAAUGCCGGUCCCAAGCCCGAAUAAAAGUGGAGGGGGCGG, 0.173.

Consider AACACUGCCAAUGCCGGUCCCAAGCCCGAAUAAAAAUGGAGGGGGCGG, for which the self-cleavage was 0.458. Regarding AACACUACCAAUGCCGGUCCCAAGCCCGGAUAAAAGUGGAGCGGGCGG, the self-cleavage worked out at 0.258. Consider AACACUGCCAAUGCCGGUCCCAAGCCCGGAUGACAGUGGAGGGGGCGG, for which the self-cleavage came to 0.137. For AACACUGCCAAUGCCGGUCCCAAGCCCGGAUAAAAGUGGGGGGGGAGG the value was 0.164; for AACACUGGCAAUGCCGGUCCCAAGCCCGGAUAAAAGUAGAGGGGGCGG, 0.325.

For AACACUGCCAAUGCAGGUCCCAAGCCCGUAUAAAAGUGGAGGGGGCGG, the self-cleavage was found to be 0.607. Regarding AACACUGCCUAUGCCGGUCCCAAGCCCGGAUAAAAGUGGAGGCGGCGG, the self-cleavage is 0.2. Under AACACUGCCAAUGCCGGUCCCAAUCCGGGAUAAAAGUGGAGGGGGCGG stands 0.0792. On to AACACUGCGAAUGCAGGUCCCAAGCCCGGAUAAAAGUGGAGGGGGCGG, for which the self-cleavage is 0.278. For AUCACUGCCAAUGCAGGUCCCAAGCCCGGAUAAAAGUGGAGGGGGCGG the value was 0.194. Under AACACUGCCAAUGCCGGUCCCAAGCCCGGAUUAACGUGGAGGGGGCGG stands 1.01; under AACACUGCCAAUGCAGGUCCCAAGCCCGGAUAAUAGUGGAGGGGGCGG, 0.273.
